Assay results from US12383631B2, “Immune antigen specific IL-18 immunocytokines and uses thereof” (Bright Peak Therapeutics AG, priority 2022, dated 2025).

Tests used:
[1] = molecular target: PD-1/PD-L1 interaction (Homo sapiens, UniProt Q15116+Q9NZQ7); assay: PD-1/PD-L1 Blockade Bioassay, Jurkat NFAT-RE luciferase / PD-L1 aAPC CHO-K1 (Example 7); type: cell-based; conditions: table titled activity in the PD-1/PD-L1 Blockade Cellular Assay; NFAT-RE luminescence, 6 h; read-out: KD FcRn
Procedure: For immunocytokine compositions which comprise PD-1 or PD-L1 antibodies or antigen binding fragments, the experiment outlined below is performed to assess the ability of the immunocytokines to interfere with the PD-1/PD-L1 pathway. The assay is the PD-1/PD-L1 Blockade Bioassay from Promega (Cat #J1250, Madison, WI, USA). PD-1/PD-L1 Blockade Bioassay is a bioluminescent cell-based assay based on the co-culture of effector cells with target cells mimicking an immunological synapse. Jurkat T cells expressing human PD-1 and a luciferase reporter driven by a NFAT response element (NFAT-RE) are activated by CHO-K1 cells expressing human PD-L1 and an engineered cell surface protein designed to activate Jurkat cells cognate TCRs. Concurrent interaction PD-1/PD-L1 inhibits TCR signaling and represses NFAT-RE-mediated luminescence. […]
Briefly, PD-L1 aAPC/CHO-K1 Target cells were plated in white tissue culture 96-wells plates and cultured overnight at 37° C./5% CO2. Test molecules were measured in four-fold serial dilutions starting at 1 μM down to 0.002 nM and pre-incubated on target cells for 10 min before the addition of freshly thawed PD-1 Jurkat effector cells. After 6 h at 37° C./5% CO2, activity NFAT-RE luminescent reporter was evaluated by the addition of Bio-Glo reagent and measured on an ENSPTRE® plate reader (1 sec/well) from Perkin Elmer (Schwerzenbach, Switzerland).

[2] = molecular target: human PD-1/CD279 (Homo sapiens, UniProt Q15116); assay: PD-1 binding ELISA (Example 5); conditions: coated antibody or immunocytokine, biotinylated human PD-1/CD279-Fc
Procedure: The interaction of the unmodified antibodies and corresponding IL-18 immunocytokines with relevant immune cell associated antigen are measured by ELISA assay. For these studies, Corning high-binding half-area plates (Fisher Scientific, Reinach, Switzerland) are coated overnight at 4° C. with 25 μl of unmodified antibodies corresponding IL-18 immunocytokines at 5 μg/ml in PBS. Plates are then washed four times with 100 μl of PBS-0.02% Tween20. Plate surfaces are blocked with 25 μl of PBS-0.02% Tween20-1% BSA at 37° C. during 1 h. Plates are then washed four times with 100 μl of PBS-0.02% Tween20. […] Plates are then washed four times with 100 μl of PBS-0.02% Tween20. Twenty-five microliters of Streptavidin-Horseradish peroxidase (#RABHRP3, Merck, Buchs, Switzerland) diluted at 1:500 into PBS-0.02% Tween20-0.1% BSA are added to each well and incubated at Room Temperature during 30 min. Plates are then washed four times with 100 μl of PBS-0.02% Tween20. Fifty microliters of TMB substrate reagent (#CL07, Merck, Buchs, Switzerland) are added to each well and incubated at 37° C. during 5 min. After 5 min at 37° C., Horseradish peroxidase reaction is stopped by adding 50 μl/well of 0.5M H2SO4 stop solution. ELISA signal is then measured at 450 nm on an ENSPTRE® plate reader from Perkin Elmer (Schwerzenbach, Switzerland).

[3] = molecular target: His-tagged human PD1 (Homo sapiens, UniProt Q15116); assay: Bio-Layer Interferometry (BLI) binding kinetics to PD-1 (Example 6); conditions: AHC sensors, analyte His-tagged human PD1
Text: Based on Bio-Layer Interferometry (BLI), Octet® BLI systems enable real-time, label-free analysis for the determination of kinetics and affinity of a ligands to its receptor. Here anti-human IgG FC Capture (AHC) sensors are loaded with the test items (ICs). Sensors are first dipped into a kinetic buffer for baseline measurement, then into an analyte solution, here human PD1, to allow association and again into a buffer solution where the analyte is allowed to come off the ligand (dissociation). Several concentrations of analyte are run in parallel and enable the calculation of affinity parameters: Ka, Kd, KD.
Typically, first, the sensors are regenerated by 3 cycles of dipping into 10 mM glycine solution at pH=2 for 20 seconds, followed by 20 second kinetics buffer and a final 60 seconds in kinetics buffer to establish the initial signal (baseline). Second, the loading column will contain the ligand, here the unmodified PD-1 antibodies and of IL-18 polypeptide conjugated PD-1 antibody, at a fixed concentration determined in the loading scout experiment (20 ug/mL). Then another wash/baseline step allows non immobilized proteins to be washed away. […] After acquisition, the data is analyzed with Data Analysis Studio software (Sartorius). […] Group fitting is then applied to the data series and kinetics parameters are calculated.

Sequence of human PD-1/CD279 (Q15116 25-288): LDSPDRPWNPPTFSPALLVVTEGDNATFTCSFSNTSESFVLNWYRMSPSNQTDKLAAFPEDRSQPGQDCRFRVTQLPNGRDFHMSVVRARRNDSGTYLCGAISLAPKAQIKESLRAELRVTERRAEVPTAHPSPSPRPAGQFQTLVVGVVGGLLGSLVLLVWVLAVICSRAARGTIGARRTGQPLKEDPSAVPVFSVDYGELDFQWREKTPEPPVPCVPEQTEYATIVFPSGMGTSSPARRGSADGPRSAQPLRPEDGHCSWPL
Sequence of PD-1/PD-L1 interaction (Q15116 25-288): as above
Sequence of PD-1/PD-L1 interaction (Q9NZQ7 19-290): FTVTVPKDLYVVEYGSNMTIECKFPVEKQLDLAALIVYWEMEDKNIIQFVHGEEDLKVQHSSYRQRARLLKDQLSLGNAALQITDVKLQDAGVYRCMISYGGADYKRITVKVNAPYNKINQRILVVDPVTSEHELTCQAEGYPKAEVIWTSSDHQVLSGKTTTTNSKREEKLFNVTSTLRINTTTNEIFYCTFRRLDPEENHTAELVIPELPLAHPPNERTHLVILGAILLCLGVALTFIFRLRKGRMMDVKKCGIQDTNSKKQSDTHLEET
Sequence of His-tagged human PD1 (Q15116 25-288): as the sequence (Q15116 25-288) above

Row | Substance | PD-1/PD-L1 blockade potency [1] | Kd [2] | ka [3] | kd [3]
1 | Atezolizumab/Tecentriq: anti-PD-L1 antibody, unconjugated reference antibody [reference compound] | 0.664 nM | > 100 nM | – | –
2 | Composition B: immunocytokine: Atezolizumab/Tecentriq (anti-PD-L1) conjugated to IL-18 polypeptide SEQ ID NO: 30 | – | > 100 nM | – | –
3 | LZM-009: anti-PD-1 antibody (VH SEQ ID NO: 376, VL SEQ ID NO: 377), unconjugated reference antibody [reference compound] | 5.8 nM | – | 342000 M⁻¹ s⁻¹ | 0.0077 s⁻¹
